T1: human CD20 antigen (human, UniProt P11836 1-297)
T1 construct: whole, on cells; also called CD20/CHO cells; CD20 on Raji cells
T1 sequence (looked up): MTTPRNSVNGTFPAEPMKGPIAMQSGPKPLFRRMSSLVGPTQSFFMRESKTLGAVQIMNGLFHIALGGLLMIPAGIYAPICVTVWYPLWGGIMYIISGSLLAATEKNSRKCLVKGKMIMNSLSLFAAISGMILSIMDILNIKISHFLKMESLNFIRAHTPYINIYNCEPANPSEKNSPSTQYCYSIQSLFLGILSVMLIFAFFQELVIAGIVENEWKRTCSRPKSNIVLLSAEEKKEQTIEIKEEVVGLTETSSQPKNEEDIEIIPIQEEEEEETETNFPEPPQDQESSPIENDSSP


How the values were obtained:
human CD20 antigen [1] = molecular target: T1, human CD20 antigen; experiment: SB cell-ELISA, negative control, concentration not clear
human CD20 antigen [2] = molecular target: T1, human CD20 antigen; experiment: CD20/CHO cell-ELISA, negative control, concentration not clear
human CD20 antigen [3] = molecular target: T1, human CD20 antigen; experiment: Raji cell-ELISA, negative control, concentration not clear
human CD20 antigen [4] = molecular target: T1, human CD20 antigen; experiment: CD20/CHO cell-ELISA, antibody at 320 ng/ml
Source text: (§1) Several murine anti-CD20 monoclonal antibodies and 2B8 were reacted by using 96-well plates to which the SB cells, Raji cells, CD20/CHO cells and CD20 CHO parent cell line were adhered.

human CD20 antigen [5] = molecular target: T1, human CD20 antigen; experiment: Raji cell-ELISA, antibody at 32 ng/ml
Source text: as §1

human CD20 antigen [6] = molecular target: T1, human CD20 antigen; experiment: SB cell-ELISA, antibody at 1000 ng/ml
Source text: as §1

human CD20 antigen [7] = molecular target: T1, human CD20 antigen; experiment: CD20/CHO cell-ELISA, antibody at 1000 ng/ml
Source text: as §1

human CD20 antigen [8] = molecular target: T1, human CD20 antigen; experiment: CD20/CHO cell-ELISA, antibody at 3 ng/ml
human CD20 antigen [9] = molecular target: T1, human CD20 antigen; experiment: SB cell-ELISA, antibody at 320 ng/ml
Source text: as §1

human CD20 antigen [10] = molecular target: T1, human CD20 antigen; experiment: CD20/CHO cell-ELISA, antibody at 100 ng/ml
human CD20 antigen [11] = molecular target: T1, human CD20 antigen; experiment: SB cell-ELISA, antibody at 100 ng/ml
Source text: as §1

human CD20 antigen [12] = molecular target: T1, human CD20 antigen; experiment: Raji cell-ELISA, antibody at 1000 ng/ml
Source text: as §1

human CD20 antigen [13] = molecular target: T1, human CD20 antigen; experiment: SB cell-ELISA, antibody at 3 ng/ml
human CD20 antigen [14] = molecular target: T1, human CD20 antigen; experiment: Raji cell-ELISA, antibody at 10 ng/ml
Source text: as §1

human CD20 antigen [15] = molecular target: T1, human CD20 antigen; experiment: Raji cell-ELISA, antibody at 3 ng/ml
human CD20 antigen [16] = molecular target: T1, human CD20 antigen; experiment: Raji cell-ELISA, antibody at 320 ng/ml
Source text: as §1

human CD20 antigen [17] = molecular target: T1, human CD20 antigen; experiment: CD20/CHO cell-ELISA, antibody at 10 ng/ml
human CD20 antigen [18] = molecular target: T1, human CD20 antigen; experiment: SB cell-ELISA, antibody at 10 ng/ml
Source text: as §1

human CD20 antigen [19] = molecular target: T1, human CD20 antigen; experiment: CD20/CHO cell-ELISA, antibody at 32 ng/ml
human CD20 antigen [20] = molecular target: T1, human CD20 antigen; experiment: SB cell-ELISA, antibody at 32 ng/ml
Source text: as §1

human CD20 antigen [21] = molecular target: T1, human CD20 antigen; experiment: Raji cell-ELISA, antibody at 100 ng/ml
Source text: as §1

human CD20 antigen [22] = molecular target: T1, human CD20 antigen; experiment: CD20/CHO cell-ELISA, antibody at 10 ng/ml; remark: listed apart in the source
Source text: as §1

human CD20 antigen [23] = molecular target: T1, human CD20 antigen; experiment: CD20/CHO cell-ELISA, antibody at 32 ng/ml; remark: listed apart in the source
Source text: as §1

human CD20 antigen [24] = molecular target: T1, human CD20 antigen; experiment: CD20/CHO cell-ELISA, antibody at 3 ng/ml; remark: listed apart in the source
Source text: as §1

human CD20 antigen [25] = molecular target: T1, human CD20 antigen; experiment: CD20/CHO cell-ELISA, antibody at 100 ng/ml; remark: listed apart in the source
Source text: as §1

A492 (human CD20 antigen [4]) [A492]	A492 (human CD20 antigen [5]) [A492]	A492 (human CD20 antigen [6]) [A492]	A492 (human CD20 antigen [7]) [A492]	A492 (human CD20 antigen [9]) [A492]	A492 (human CD20 antigen [11]) [A492]	A492 (human CD20 antigen [12]) [A492]	A492 (human CD20 antigen [14]) [A492]	A492 (human CD20 antigen [16]) [A492]	A492 (human CD20 antigen [18]) [A492]	A492 (human CD20 antigen [20]) [A492]	A492 (human CD20 antigen [21]) [A492]	Molecule	also measured
												NC	A492 (human CD20 antigen [1]): 0.028 A492; A492 (human CD20 antigen [2]): 0.07 A492; A492 (human CD20 antigen [3]): 0.035 A492
1.66	0.038	0.337	2.29	0.091	0.045	0.329	0.034	0.121	0.037	0.038	0.055	2B8 (antibody)	A492 (human CD20 antigen [8]): 0.089 A492; A492 (human CD20 antigen [10]): 1.09 A492; A492 (human CD20 antigen [13]): 0.053 A492; A492 (human CD20 antigen [15]): 0.046 A492; A492 (human CD20 antigen [17]): 0.174 A492; A492 (human CD20 antigen [19]): 0.561 A492
1.33	0.057	0.403	2.23	0.147	0.071	0.748	0.046	0.277	0.036	0.039	0.121	murine anti-CD20 monoclonal antibody 1K1422 (antibody, V domains shown, Mouse monoclonal antibody from a hybridoma) VH: QVQLQQPGAELVKPGASVKMSCRASGYTFTNYNMHWIKQTPGQGLEWIGAIYPGSGDTSYNRKFKGKATLTADTSSSTAYMQFSSLTSADSAVYYCARFTYYYGGTYGAMDYWGQGTSVTVSL VL: QIVLTQSPPIMSASLGEEITLTCSASSRVSYMLWYQQKSGTSPKLLIYSTSNLASGVPSRFSGSGSGTFYSLTISSVEAEDAADYYCHQWTSNPCTFGGGTKLEIK	A492 (human CD20 antigen [22]): 0.105 A492; A492 (human CD20 antigen [23]): 0.238 A492; A492 (human CD20 antigen [24]): 0.068 A492; A492 (human CD20 antigen [25]): 0.842 A492

— patent US20090197330A1 (BIOMEDICS, published 2009)
